Data set [1] concerns the molecule itself. Nature of the data set: SEC.
Data set [2] concerns the molecule itself. Nature of the data set: SEC. This is another data set of the same source.
The data set “light scattering” concerns the molecule itself. Nature of the data set: light scattering.

B1: Cp149-C61S (Cp149 with C61 mutated to serine) (domain or fragment, hepatitis B virus, UniProt P03147 1-149, looked up)
chain: MDIDPYKEFGATVELLSFLPSDFFPSVRDLLDTAAALYRDALESPEHCSPHHTALRQAILSWGDLMTLATWVGTNLEDPASRDLVVSYVNTNVGLKFRQLLWFHISCLTFGRETVLEYLVSFGVWIRTPPAYRPPNAPILSTLPETTVV
As to B1, in “SEC [1]”, the pseudocritical concentration is 5.9 µM.

B2: Cp149re-red (partially re-reduced Cp149ox) (domain or fragment, hepatitis B virus, UniProt P03147 1-149, looked up)
chain: MDIDPYKEFGATVELLSFLPSDFFPSVRDLLDTAAALYRDALESPEHCSPHHTALRQAILCWGDLMTLATWVGTNLEDPASRDLVVSYVNTNVGLKFRQLLWFHISCLTFGRETVLEYLVSFGVWIRTPPAYRPPNAPILSTLPETTVV
modifications: intradimer C61–C61 disulfide in most dimers (only ∼20% of Cp149ox could be reduced)
For the protein B2, the pseudocritical concentration in the data set “SEC [1]” worked out at 6.5 µM.

B3: Cp149red (reduced HBV core protein assembly domain, amino acids 1–149, homodimer) (domain or fragment, hepatitis B virus, UniProt P03147 1-149, looked up)
chain: MDIDPYKEFGATVELLSFLPSDFFPSVRDLLDTAAALYRDALESPEHCSPHHTALRQAILCWGDLMTLATWVGTNLEDPASRDLVVSYVNTNVGLKFRQLLWFHISCLTFGRETVLEYLVSFGVWIRTPPAYRPPNAPILSTLPETTVV
B3 showed a pseudocritical concentration in the data set “SEC [1]” of 4.7 µM.

B4: Cp149ox (fully oxidized Cp149 dimer with the intradimer C61–C61 disulfide) (domain or fragment, hepatitis B virus, UniProt P03147 1-149, looked up)
chain: MDIDPYKEFGATVELLSFLPSDFFPSVRDLLDTAAALYRDALESPEHCSPHHTALRQAILCWGDLMTLATWVGTNLEDPASRDLVVSYVNTNVGLKFRQLLWFHISCLTFGRETVLEYLVSFGVWIRTPPAYRPPNAPILSTLPETTVV
modifications: intradimer C61–C61 disulfide (fully oxidized)
For the protein B4, in “SEC [2]”, the equilibrium dissociation constant (Kd) – broadly, the constant that tells how readily two partners part at equilibrium – came to 4 ± 0.2 µM. For the same protein, in the data set “light scattering”, the “amount of capsid relative to Cp149red” value is ~40% and the “fold slower elongation rate constant than Cp149red” value came out at 1.7 fold.

(Values after paper PMC4151697 (Biochemistry, 2014).)
